# Patent publication US20230302148A1, “PHARMACEUTICAL COMPOSITION COMPRISING LONG-ACTING CONJUGATE OF TRIPLE GLUCAGON/GLP-1/GIP RECEPTOR AGONIST” (HANMI PHARM. CO., LTD., priority 2020, published 2023)
# Bridges are numbered along the chain shown (N, C = ends). Where no end group is shown, it is not given here. [ ]: non-standard residue; d: D form. The star is where a group is joined. Acetyl(2-(4-imidazolyl)) = O=C(Cc1c[nH]cn1)*; Aib = CC(C)(N)C(=O)O
# T1: human GIP receptor (human, UniProt P48546 22-466)
# T1 sequence (looked up): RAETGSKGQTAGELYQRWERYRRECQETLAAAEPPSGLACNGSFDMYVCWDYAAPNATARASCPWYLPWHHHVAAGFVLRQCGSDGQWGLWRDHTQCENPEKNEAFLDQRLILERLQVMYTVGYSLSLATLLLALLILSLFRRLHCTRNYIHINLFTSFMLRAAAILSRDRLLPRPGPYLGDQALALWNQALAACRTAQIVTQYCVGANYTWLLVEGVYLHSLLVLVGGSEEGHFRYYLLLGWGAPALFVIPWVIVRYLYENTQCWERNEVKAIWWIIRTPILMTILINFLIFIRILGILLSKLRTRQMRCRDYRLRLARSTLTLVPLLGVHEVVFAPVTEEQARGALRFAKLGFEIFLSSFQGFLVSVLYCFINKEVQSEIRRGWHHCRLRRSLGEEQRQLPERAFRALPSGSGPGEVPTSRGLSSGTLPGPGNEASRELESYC
# Target: human GCG receptor (human, UniProt P47871 26-477)
# Test: cell-based or functional assay
# Sequence of human GCG receptor (P47871 26-477): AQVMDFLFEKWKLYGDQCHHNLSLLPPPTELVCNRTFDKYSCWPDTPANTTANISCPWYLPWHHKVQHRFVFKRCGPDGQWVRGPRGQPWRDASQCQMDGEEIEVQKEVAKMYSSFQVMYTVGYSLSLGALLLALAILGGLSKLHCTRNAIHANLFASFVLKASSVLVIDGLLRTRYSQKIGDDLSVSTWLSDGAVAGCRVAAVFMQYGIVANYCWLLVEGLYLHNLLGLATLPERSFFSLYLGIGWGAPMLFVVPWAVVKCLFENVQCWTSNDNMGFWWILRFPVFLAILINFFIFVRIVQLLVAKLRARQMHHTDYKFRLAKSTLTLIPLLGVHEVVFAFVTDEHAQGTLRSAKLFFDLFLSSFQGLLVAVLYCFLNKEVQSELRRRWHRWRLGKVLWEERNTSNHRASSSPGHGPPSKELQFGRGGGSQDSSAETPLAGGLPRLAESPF
row,Binder,In vitro activity relative to native peptide (%) vs. Glucagon [%]
1,[Acetyl(2-(4-imidazolyl))][Aib]QGTFTSDYSICMDEKHQKDFVNWLLNTK (bridge 16-20; not fully specified) [triple agonist of SEQ ID NO: 59],< 0.1
2,[Acetyl(2-(4-imidazolyl))][Aib]QGTFTSDYSIAMDEKHCKDFVNWLLNTK (bridge 16-20; not fully specified) [triple agonist of SEQ ID NO: 60],< 0.1
3,H[Aib]QGTFTSDYSKCLDEKRAKEFVQWLLDHHPSSGQPPPS (bridge 16-20) [triple agonist of SEQ ID NO: 65],25.2
4,Y[Aib]QGTFTSDYSKCLDEKRAKDFVQWLLDHHPSSGQPPPS (bridge 16-20) [triple agonist of SEQ ID NO: 70],71.3
5,Y[Aib]QGTFTSDYSKYLDERACKDFVQWLLDHHPSSGQPPPS (bridge 16-20) [triple agonist of SEQ ID NO: 71],12.7
6,[Acetyl(2-(4-imidazolyl))][Aib]QGTFTSDKSKYLDERAAQDFVQWLLDGGPSSGAPPPS [triple agonist of SEQ ID NO: 62],< 0.1
7,[Acetyl(2-(4-imidazolyl))][Aib]QGTFTSDYSKYLDECRAKEFVQWLLDHHPSSGQPPPS (bridge 16-20; not fully specified) [triple agonist of SEQ ID NO: 73],5.4
8,Y[Aib]QGTFTSDYSKCLDEKAAKEFVQWLLDHHPSSGQPPPS (bridge 16-20) [triple agonist of SEQ ID NO: 68],8.8
9,Y[Aib]QGTFTSDYSKYLDECAAKEFVQWLLDHHPSSGQPPPS (bridge 16-20) [triple agonist of SEQ ID NO: 64],60.1
10,[Acetyl(2-(4-imidazolyl))][Aib]QGTFTSDYSIAMDEIACKDFVNWLLNTK (bridge 16-20; not fully specified) [triple agonist of SEQ ID NO: 61],< 0.1
11,[Acetyl(2-(4-imidazolyl))][Aib]QGTFTSDYSKCLDEKRAKEFVQWLLDHHPSSGQPPPS (bridge 16-20; not fully specified) [triple agonist of SEQ ID NO: 74],0.9
12,H[Aib]QGTFTSDVSKYLDGQAAQEFVAWLLKGC [triple agonist of SEQ ID NO: 8],0.1
13,Y[Aib]QGTFTSDCSKYLDERAAKDFVQWLLDHHPSSGQPPPS (bridge 16-20) [triple agonist of SEQ ID NO: 72],1
14,Y[Aib]QGTFTSDYSKYLDECAAKDFVQWLLDHHPSSGQPPPS (bridge 16-20) [triple agonist of SEQ ID NO: 67],46.2
15,Y[Aib]QGTFTSDYSKCLDERAAKEFVQWLLDHHPSSGQPPPS (bridge 16-20) [triple agonist of SEQ ID NO: 69],9.6
16,H[Aib]QGTFTSDVSKYLDGQAAKEFVAWLLKGC [triple agonist of SEQ ID NO: 7],< 0.1
17,H[Aib]QGTFTSDYSIAMDEIHQKDFVNWLLNTC (bridge 16-20) [triple agonist of SEQ ID NO: 57],< 0.1
18,H[Aib]QGTFTSDYSKYLDEKRQKEFVQWLLNTKC (bridge 16-20) [triple agonist of SEQ ID NO: 58],2.6
19,[Acetyl(2-(4-imidazolyl))][Aib]QGTFTSDCSKYLDERAAQDFVQWLLDGGPSSGAPPPS [triple agonist of SEQ ID NO: 63],< 0.1
20,Y[Aib]QGTFTSDYSKYLDECRAKDFVQWLLDHHPSSGQPPPS (bridge 16-20) [triple agonist of SEQ ID NO: 66],172

# Target: human GLP-1 receptor (human, UniProt P43220 24-463)
# Test: cell-based or functional assay
row,Binder,In vitro activity relative to native peptide (%) vs. GLP-1 [%]
1,[Acetyl(2-(4-imidazolyl))][Aib]QGTFTSDYSICMDEKHQKDFVNWLLNTK (bridge 16-20; not fully specified) [triple agonist of SEQ ID NO: 59],40.3
2,[Acetyl(2-(4-imidazolyl))][Aib]QGTFTSDYSIAMDEKHCKDFVNWLLNTK (bridge 16-20; not fully specified) [triple agonist of SEQ ID NO: 60],106
3,H[Aib]QGTFTSDYSKCLDEKRAKEFVQWLLDHHPSSGQPPPS (bridge 16-20) [triple agonist of SEQ ID NO: 65],95.4
4,Y[Aib]QGTFTSDYSKCLDEKRAKDFVQWLLDHHPSSGQPPPS (bridge 16-20) [triple agonist of SEQ ID NO: 70],15.1
5,Y[Aib]QGTFTSDYSKYLDERACKDFVQWLLDHHPSSGQPPPS (bridge 16-20) [triple agonist of SEQ ID NO: 71],90.1
6,[Acetyl(2-(4-imidazolyl))][Aib]QGTFTSDKSKYLDERAAQDFVQWLLDGGPSSGAPPPS [triple agonist of SEQ ID NO: 62],5.2
7,[Acetyl(2-(4-imidazolyl))][Aib]QGTFTSDYSKYLDECRAKEFVQWLLDHHPSSGQPPPS (bridge 16-20; not fully specified) [triple agonist of SEQ ID NO: 73],22.6
8,Y[Aib]QGTFTSDYSKCLDEKAAKEFVQWLLDHHPSSGQPPPS (bridge 16-20) [triple agonist of SEQ ID NO: 68],27.9
9,Y[Aib]QGTFTSDYSKYLDECAAKEFVQWLLDHHPSSGQPPPS (bridge 16-20) [triple agonist of SEQ ID NO: 64],64.6
10,[Acetyl(2-(4-imidazolyl))][Aib]QGTFTSDYSIAMDEIACKDFVNWLLNTK (bridge 16-20; not fully specified) [triple agonist of SEQ ID NO: 61],59.8
11,[Acetyl(2-(4-imidazolyl))][Aib]QGTFTSDYSKCLDEKRAKEFVQWLLDHHPSSGQPPPS (bridge 16-20; not fully specified) [triple agonist of SEQ ID NO: 74],12.9
12,H[Aib]QGTFTSDVSKYLDGQAAQEFVAWLLKGC [triple agonist of SEQ ID NO: 8],14.2
13,Y[Aib]QGTFTSDCSKYLDERAAKDFVQWLLDHHPSSGQPPPS (bridge 16-20) [triple agonist of SEQ ID NO: 72],11.5
14,Y[Aib]QGTFTSDYSKYLDECAAKDFVQWLLDHHPSSGQPPPS (bridge 16-20) [triple agonist of SEQ ID NO: 67],28.5
15,Y[Aib]QGTFTSDYSKCLDERAAKEFVQWLLDHHPSSGQPPPS (bridge 16-20) [triple agonist of SEQ ID NO: 69],24.3
16,H[Aib]QGTFTSDVSKYLDGQAAKEFVAWLLKGC [triple agonist of SEQ ID NO: 7],13.7
17,H[Aib]QGTFTSDYSIAMDEIHQKDFVNWLLNTC (bridge 16-20) [triple agonist of SEQ ID NO: 57],11.7
18,H[Aib]QGTFTSDYSKYLDEKRQKEFVQWLLNTKC (bridge 16-20) [triple agonist of SEQ ID NO: 58],39.1
19,[Acetyl(2-(4-imidazolyl))][Aib]QGTFTSDCSKYLDERAAQDFVQWLLDGGPSSGAPPPS [triple agonist of SEQ ID NO: 63],15.3
20,Y[Aib]QGTFTSDYSKYLDECRAKDFVQWLLDHHPSSGQPPPS (bridge 16-20) [triple agonist of SEQ ID NO: 66],15.8

# Target: T1, human GIP receptor
# Test: cell-based or functional assay
row,Binder,In vitro activity relative to native peptide (%) vs. GIP [%]
1,[Acetyl(2-(4-imidazolyl))][Aib]QGTFTSDYSICMDEKHQKDFVNWLLNTK (bridge 16-20; not fully specified) [triple agonist of SEQ ID NO: 59],4
2,[Acetyl(2-(4-imidazolyl))][Aib]QGTFTSDYSIAMDEKHCKDFVNWLLNTK (bridge 16-20; not fully specified) [triple agonist of SEQ ID NO: 60],8.2
3,H[Aib]QGTFTSDYSKCLDEKRAKEFVQWLLDHHPSSGQPPPS (bridge 16-20) [triple agonist of SEQ ID NO: 65],11.6
4,Y[Aib]QGTFTSDYSKCLDEKRAKDFVQWLLDHHPSSGQPPPS (bridge 16-20) [triple agonist of SEQ ID NO: 70],64.4
5,Y[Aib]QGTFTSDYSKYLDERACKDFVQWLLDHHPSSGQPPPS (bridge 16-20) [triple agonist of SEQ ID NO: 71],94.7
6,[Acetyl(2-(4-imidazolyl))][Aib]QGTFTSDKSKYLDERAAQDFVQWLLDGGPSSGAPPPS [triple agonist of SEQ ID NO: 62],< 0.1
7,[Acetyl(2-(4-imidazolyl))][Aib]QGTFTSDYSKYLDECRAKEFVQWLLDHHPSSGQPPPS (bridge 16-20; not fully specified) [triple agonist of SEQ ID NO: 73],3
8,Y[Aib]QGTFTSDYSKCLDEKAAKEFVQWLLDHHPSSGQPPPS (bridge 16-20) [triple agonist of SEQ ID NO: 68],107
9,Y[Aib]QGTFTSDYSKYLDECAAKEFVQWLLDHHPSSGQPPPS (bridge 16-20) [triple agonist of SEQ ID NO: 64],92.9
10,[Acetyl(2-(4-imidazolyl))][Aib]QGTFTSDYSIAMDEIACKDFVNWLLNTK (bridge 16-20; not fully specified) [triple agonist of SEQ ID NO: 61],2.8
11,[Acetyl(2-(4-imidazolyl))][Aib]QGTFTSDYSKCLDEKRAKEFVQWLLDHHPSSGQPPPS (bridge 16-20; not fully specified) [triple agonist of SEQ ID NO: 74],1
12,H[Aib]QGTFTSDVSKYLDGQAAQEFVAWLLKGC [triple agonist of SEQ ID NO: 8],< 0.1
13,Y[Aib]QGTFTSDCSKYLDERAAKDFVQWLLDHHPSSGQPPPS (bridge 16-20) [triple agonist of SEQ ID NO: 72],1.6
14,Y[Aib]QGTFTSDYSKYLDECAAKDFVQWLLDHHPSSGQPPPS (bridge 16-20) [triple agonist of SEQ ID NO: 67],39.8
15,Y[Aib]QGTFTSDYSKCLDERAAKEFVQWLLDHHPSSGQPPPS (bridge 16-20) [triple agonist of SEQ ID NO: 69],62.8
16,H[Aib]QGTFTSDVSKYLDGQAAKEFVAWLLKGC [triple agonist of SEQ ID NO: 7],< 0.1
17,H[Aib]QGTFTSDYSIAMDEIHQKDFVNWLLNTC (bridge 16-20) [triple agonist of SEQ ID NO: 57],0.3
18,H[Aib]QGTFTSDYSKYLDEKRQKEFVQWLLNTKC (bridge 16-20) [triple agonist of SEQ ID NO: 58],0.2
19,[Acetyl(2-(4-imidazolyl))][Aib]QGTFTSDCSKYLDERAAQDFVQWLLDGGPSSGAPPPS [triple agonist of SEQ ID NO: 63],< 0.1
20,Y[Aib]QGTFTSDYSKYLDECRAKDFVQWLLDHHPSSGQPPPS (bridge 16-20) [triple agonist of SEQ ID NO: 66],17.2
